Patent publication US20020115592A1, “Pharmaceutical compositions containing insulin” (Provalis UK Limited, priority 1998, published 2002)

Tests used:
[1] = Dissolution of insulin (optionally with aprotinin) in non-aqueous hydrophilic solvent/cosolvent; assay type: physicochemical; conditions: Insulin 7 mg
[2] = Appearance on addition of Akoline to the insulin solution; assay type: physicochemical; conditions: Insulin 7 mg
[3] = Gly (20 μl), PEG/L-lactic (20 μl/10 mg)
[4] = Gly (20 μl), PEG/NaAc (20 μl/10 mg)
[5] = Gly (40 μl), Acetic acid (10 mg)
[6] = Gly (40 μl), L-lactic acid (10 mg)
[7] = PD (40 μl), Na-L lactate (10 mg)
[8] = PEG (25 μl), DL-lactic acid (25 μl)
[9] = PEG (50 μl), Glycerol/TEA (50 μl/10 gl)
[10] = PG (40 μl), Acetic acid (10 mg)
[11] = PG (40 μl), Caproic acid (10 mg)
[12] = PG (40 μl), Citric acid (10 mg)

Substance: Insulin
- Soluble? [1, 3]: Yes
- Soluble? [1, 4]: Yes
- Soluble? [1, 5]: Yes
- Soluble? [1, 6]: Yes
- Soluble? ([1]; Gly (40 μl), NaAc (10 mg)): Yes
- Soluble? ([1]; PD (20 μl), benz. SO3H (10 mg)): Yes
- Soluble? ([1]; PD (40 μl), L-lactic (10 mg)): Yes
- Soluble? [1, 7]: Yes
- Soluble? ([1]; PD (40 μl), NaAc (10 mg)): Yes
- Soluble? ([1]; PEG (20 μl), L-lactic (10 mg)): Yes
- Soluble? ([1]; PEG (20 μl), NaAc (10 mg)): Yes
- Soluble? [1, 8]: Yes
- Soluble? ([1]; PEG (25 μl), DL-lactic acid (25 μl), listed as with Akoline/POE): Yes
- Soluble? ([1]; PEG (40 μl), camitine (10 mg)): Yes
- Soluble? [1, 9]: Yes
- Soluble? [1, 10]: Yes
- Soluble? [1, 11]: Yes
- Soluble? [1, 12]: Yes
- Addition of Akoline [2, 3]: Turbid
- Addition of Akoline [2, 4]: Clear
- Addition of Akoline [2, 5]: Opaque
- Addition of Akoline [2, 6]: Turbid
- Addition of Akoline ([2]; Gly (40 μl), NaAc (10 mg)): Translucent
- Addition of Akoline ([2]; PD (20 μl), benz. SO3H (10 mg)): Clear
- Addition of Akoline ([2]; PD (40 μl), L-lactic (10 mg)): Turbid
- Addition of Akoline [2, 7]: Clear
- Addition of Akoline ([2]; PD (40 μl), NaAc (10 mg)): Clear
- Addition of Akoline ([2]; PEG (20 μl), L-lactic (10 mg)): Translucent
- Addition of Akoline ([2]; PEG (20 μl), NaAc (10 mg)): Clear
- Addition of Akoline [2, 8]: Cloudy
- Addition of Akoline ([2]; PEG (25 μl), DL-lactic acid (25 μl), (Akoline/POE)): Suspension
- Addition of Akoline ([2]; PEG (40 μl), camitine (10 mg)): Clear solution
- Addition of Akoline [2, 9]: Suspension
- Addition of Akoline [2, 10]: Translucent
- Addition of Akoline [2, 11]: Translucent
- Addition of Akoline [2, 12]: Translucent
